Source: the supplement of paper PMC10724198
± gives the standard deviation of the averaged measurements.
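Note: PSI is a weighted mean of sequencing reads over stability bins, variants kept only with over 10 reads, mCherry proximal and sfGFP distal, peptide attached via GGGS linker.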

What follows are sequences tested on Saccharomyces cerevisiae (assay: protein stability index of tFT-peptide fusion (C-terminal peptide) (PSI (0-1 scale)); higher = more stable (slower turnover)). Details: genetic background: wild type; temperature: 30 C.
Sequence RLHHQYSEATIS has a protein stability index of 0.703 ± 0.027.
Work on RLHSLFVSCPTC yielded a protein stability index of 0.703 ± 0.023.
For RLIPYPPPLSLP, the protein stability index was 0.724 ± 0.021.
For RLLGLWGEVMGF, the protein stability index was 0.731 ± 0.021.
RLLGSGHCLLYI showed a protein stability index of 0.613 ± 0.047.
In the case of RLPAFSSDLLRH, the protein stability index is reported as 0.704 ± 0.046.
Work on RLPLRVTGIPVD yielded a protein stability index of 0.6668 ± 0.0016.
RLPPPLPQAPPT showed a protein stability index of 0.712 ± 0.023.
For RLPQIHSDREQK, the protein stability index was 0.746 ± 0.018.
Sequence RLPSPPTAPAPP has a protein stability index of 0.658 ± 0.0084.
Sequence RLRASFFFSPAL has a protein stability index of 0.733 ± 0.056.
RLRFIGDCKSST showed a protein stability index of 0.637 ± 0.031.
RLRGLLSPVGPQ showed a protein stability index of 0.716 ± 0.047.
RLRVIMVSVGGV showed a protein stability index of 0.544 ± 0.0079.
For RLSDFFSPPLLP, the protein stability index was 0.717 ± 0.047.
RLSMCLDDPPRL gave a protein stability index of 0.717 ± 0.025.
RLSPGSPSPFPC showed a protein stability index of 0.691 ± 0.029.
For RLSSFDELSDVY, the protein stability index was 0.729 ± 0.026.
RLYTNEMIRGSF showed a protein stability index of 0.69 ± 0.04.
RMGGRGGRLGAE gave a protein stability index of 0.657 ± 0.018.
RMGWSGKVGVVG showed a protein stability index of 0.78 ± 0.11.
RMNSDMKDTEAQ gave a protein stability index of 0.65 ± 0.0075.
With RNARSPACRTRR the protein stability index was 0.7481 ± 0.0052.
In the case of RNFWIYTHTRCR, the protein stability index is reported as 0.668 ± 0.049.
RNKLEKKIYKRS gave a protein stability index of 0.672 ± 0.014.
In the case of RNKSRMWKEIIR, the protein stability index is reported as 0.657 ± 0.069.
With RNRAGHVGCYGL the protein stability index was 0.6989 ± 0.0066.
RNRSNTQAKVIR showed a protein stability index of 0.6725 ± 0.004.
RNTKGTIKKKKE showed a protein stability index of 0.715 ± 0.074.
Work on RNTPFVCVRNGA yielded a protein stability index of 0.726 ± 0.16.
For RPAFSPDVSPPS, the protein stability index was 0.716 ± 0.013.
With RPEAVARIFDDE the protein stability index was 0.724 ± 0.013.
Sequence RPFLSVLPLFFP has a protein stability index of 0.734 ± 0.0017.
RPFSSPSPSLPA was tested, and the protein stability index was 0.743 ± 0.071.
In the case of RPGGSRTEGRRT, the protein stability index is reported as 0.683 ± 0.033.
Work on RPPISLGSLLVG yielded a protein stability index of 0.714 ± 0.1.
RPPPAAPLHITS gave a protein stability index of 0.714.
Work on RPPPHPPFPPRF yielded a protein stability index of 0.714 ± 0.052.
Sequence RPPPLPLPPHFP has a protein stability index of 0.709 ± 0.069.
RPPPPLSPPSLV gave a protein stability index of 0.73 ± 0.0084.
For RPPRPSSSPLPP, the protein stability index was 0.719 ± 0.059.
Sequence RPPSLWRSSFTP has a protein stability index of 0.6822 ± 0.0026.
For RPQNDRKMRKVE, the protein stability index was 0.621 ± 0.059.
For RPRELHNSETVY, the protein stability index was 0.683 ± 0.025.
Work on RPRTLLARSTHP yielded a protein stability index of 0.717 ± 0.013.
RPRVDLCDINPE showed a protein stability index of 0.692 ± 0.021.
RPSHPPHLPPPV gave a protein stability index of 0.6753 ± 0.0044.
Sequence RPSLSPLHVPPS has a protein stability index of 0.748 ± 0.047.
In the case of RPVRYVLSGGCI, the protein stability index is reported as 0.68 ± 0.012.
RPYKINNNIEVK gave a protein stability index of 0.676 ± 0.01.
For RQEKITQHRARI, the protein stability index was 0.689 ± 0.024.
For RQLGELASARWL, the protein stability index was 0.709 ± 0.025.
With RQPRPPDDIASV the protein stability index was 0.678 ± 0.032.
Work on RQRSKEPVVQAY yielded a protein stability index of 0.654 ± 0.046.
For RQSSPKQDRKPS, the protein stability index was 0.679 ± 0.048.
RRATHTRDINNL was tested, and the protein stability index was 0.643 ± 0.015.
For RRERQRRARTEI, the protein stability index was 0.6876 ± 0.0036.
Sequence RREVFIPSTRVL has a protein stability index of 0.698 ± 0.044.
RRGAPSYATLAL was tested, and the protein stability index was 0.637 ± 0.0073.
For RRGASWDEDAGS, the protein stability index was 0.719 ± 0.0086.
Work on RRGENQSFPACR yielded a protein stability index of 0.701 ± 0.028.
Work on RRGHMTRFTHSR yielded a protein stability index of 0.692 ± 0.077.
RRGPDRCSSLPS was tested, and the protein stability index was 0.6638 ± 0.0044.
With RRHHSVSPLPFL the protein stability index was 0.709 ± 0.0099.
RRIGKTFLSLNI gave a protein stability index of 0.709 ± 0.073.
For RRKGGEERKLKK, the protein stability index was 0.629 ± 0.037.
RRKRTKGRGRAQ gave a protein stability index of 0.6986 ± 0.002.
For RRLAGRPVTRGA, the protein stability index was 0.667 ± 0.015.
For RRLEPGVAWFPT, the protein stability index was 0.661 ± 0.01.
In the case of RRLLRWFYLDGG, the protein stability index is reported as 0.661 ± 0.022.
Sequence RRMAGEPKCGRS has a protein stability index of 0.699 ± 0.015.
With RRPGGQGHPNAG the protein stability index was 0.752 ± 0.023.
In the case of RRPGSTTPPAYR, the protein stability index is reported as 0.675 ± 0.048.
RRPTVLRHQSPI was tested, and the protein stability index was 0.737 ± 0.031.
RRREESGEGSEQ was tested, and the protein stability index was 0.635 ± 0.073.
For RRRLLLWEELVE, the protein stability index was 0.7706 ± 0.004.
RRRQARGANAHS gave a protein stability index of 0.7 ± 0.013.
Work on RRRRAVGPREAP yielded a protein stability index of 0.717 ± 0.17.
For RRRREKWSVVHR, the protein stability index was 0.758 ± 0.0096.
RRRTARVRTGQV was tested, and the protein stability index was 0.647 ± 0.043.
RRRVADIYHGEK showed a protein stability index of 0.713 ± 0.086.
Sequence RRSGLTNLCSLH has a protein stability index of 0.746 ± 0.04.
Work on RRSRPSSPYLPP yielded a protein stability index of 0.707 ± 0.0094.
In the case of RRTTYKKVKRKK, the protein stability index is reported as 0.65 ± 0.062.
For RRVGPVSPNWIS, the protein stability index was 0.6499 ± 0.0042.
RRVPVVSRAGGG was tested, and the protein stability index was 0.697 ± 0.067.
Sequence RRWAFWGAAAAR has a protein stability index of 0.702 ± 0.013.
Sequence RRWCATLGRDRV has a protein stability index of 0.7029 ± 0.0051.
In the case of RRWGGCPGVRGC, the protein stability index is reported as 0.666 ± 0.019.
With RSANIINPHIFP the protein stability index was 0.758 ± 0.014.
Work on RSASPPRPLPPP yielded a protein stability index of 0.737 ± 0.032.
For RSCCSFRLEPYC, the protein stability index was 0.671 ± 0.026.
RSCVGGISVLVL was tested, and the protein stability index was 0.466 ± 0.085.
Sequence RSEPRQILHRQT has a protein stability index of 0.702 ± 0.025.
Work on RSFAGTTRIRLG yielded a protein stability index of 0.739 ± 0.043.
RSFLTDLLRGAA gave a protein stability index of 0.647 ± 0.054.
In the case of RSFPYLLFPPPS, the protein stability index is reported as 0.713 ± 0.046.
In the case of RSGLHGSGRPGG, the protein stability index is reported as 0.715 ± 0.053.
Work on RSHPSPPPVILY yielded a protein stability index of 0.686 ± 0.045.
With RSLGFPLRNVTH the protein stability index was 0.655 ± 0.015.
Sequence RSLGLVGRGFWG has a protein stability index of 0.728 ± 0.086.
Work on RSLRSSRSGTLA yielded a protein stability index of 0.848 ± 0.014.
Work on RSMLVSRQSIGV yielded a protein stability index of 0.695 ± 0.019.
Sequence RSNECTSEMEVC has a protein stability index of 0.689 ± 0.04.
For RSPPPSLTPSPL, the protein stability index was 0.68193 ± 0.00027.
RSPTGSPGRSFS gave a protein stability index of 0.687 ± 0.025.
Sequence RSRATIGSQILS has a protein stability index of 0.688 ± 0.01.
Work on RSRCHPRLPRAV yielded a protein stability index of 0.707 ± 0.03.
RSRHPPPPLLFP was tested, and the protein stability index was 0.707 ± 0.043.
Sequence RSRLSEAEEYGR has a protein stability index of 0.71 ± 0.0072.
With RSRPPPSPTTPL the protein stability index was 0.775 ± 0.054.
RSRRFPPTRPPL gave a protein stability index of 0.73956 ± 0.00073.
RSRYRLFRADLS gave a protein stability index of 0.753 ± 0.062.
RSSGAFKVCTDR showed a protein stability index of 0.684 ± 0.019.
RSSGPPCLIPLP gave a protein stability index of 0.787 ± 0.047.
With RSSLGSFSELSQ the protein stability index was 0.777 ± 0.031.
RSSPPHLPPPSL was tested, and the protein stability index was 0.68 ± 0.026.
For RSSSPLPLLSLL, the protein stability index was 0.753 ± 0.053.
In the case of RSTLSPSPRPSP, the protein stability index is reported as 0.674 ± 0.0042.
With RSTSGACSRRWL the protein stability index was 0.624 ± 0.025.
RSVSLIAVAPSA was tested, and the protein stability index was 0.692 ± 0.017.
With RSWIDNKMKVNV the protein stability index was 0.721 ± 0.0076.
RSYLLVWTSRLH gave a protein stability index of 0.637 ± 0.02.
In the case of RTAGQRLIRVNR, the protein stability index is reported as 0.744 ± 0.075.
RTAPVPETAQQD gave a protein stability index of 0.678 ± 0.034.
RTAVFLTRRYGT showed a protein stability index of 0.673 ± 0.02.
In the case of RTDKETIKKIVE, the protein stability index is reported as 0.72 ± 0.014.
Sequence RTLNPHLYRLRH has a protein stability index of 0.682 ± 0.024.
With RTRPCNGPGRFG the protein stability index was 0.724 ± 0.057.
RTTHPSPPTLTV showed a protein stability index of 0.629 ± 0.021.
With RVCDSAPKRNRH the protein stability index was 0.676 ± 0.018.
RVCLVVWRECWF showed a protein stability index of 0.509 ± 0.0082.
Work on RVCYRAELSAMS yielded a protein stability index of 0.559 ± 0.045.
Sequence RVDGDFDYPRVV has a protein stability index of 0.82 ± 0.11.
With RVDLPFDRSVSD the protein stability index was 0.702 ± 0.057.
With RVEADMKKRWTG the protein stability index was 0.716 ± 0.028.
RVGGPGNRGGVV was tested, and the protein stability index was 0.696 ± 0.058.
RVGRCYPSIVRS was tested, and the protein stability index was 0.6522 ± 0.0042.
Sequence RVGRKGRRRGSR has a protein stability index of 0.767 ± 0.07.
With RVGTGFVGYSFS the protein stability index was 0.679 ± 0.13.
Sequence RVGVEYGETGGG has a protein stability index of 0.732 ± 0.29.
Sequence RVIHLRKIHYEE has a protein stability index of 0.6728 ± 0.005.
RVLCYHFSPGVV gave a protein stability index of 0.656 ± 0.057.
RVLPPAPLQALQ was tested, and the protein stability index was 0.645 ± 0.018.
In the case of RVLWVELGSWGG, the protein stability index is reported as 0.708 ± 0.045.
For RVMPRVNDKKGI, the protein stability index was 0.732 ± 0.092.
